Patent publication US20090087417A1, “METHODS FOR PROMOTING DOPAMINERGIC NEURONAL DEVELOPMENT BY USING NG4A-SUBFAMILY AND WNT-LIGANDS” (priority 2002, published 2009)

B1: Wnt-5a: Partially purified conditioned media from stable fibroblast cell line engineered to secrete Wnt-5a ligand (protein)
chain: IIGAQPLCSQLAGLSQGQKKLCHLYQDHMQYIGEGAKTGIKECQYQFRHRRWNCSTVDNTSVFGRVMQIGSRETAFTYAVSAAGVVNAMSRACREGELSTCGCSRAARPKDLPRDWLWGGCGDNIDYGYRFAKEFVDARERERIHAKGSYESARILMNLHNNEAGRRTVYNLADVACKCHGVSGSCSLKTCWLQLADFRKVGDALKEKYDSAAAMRLNSRGKLVQVNSRFNSPTTQDLVYIDPSPDYCVRNESTGSLGTQGRLCNKTSEGMDGCELMCCGRGYDQFKTVQTERCHCKFHWCCYVKCKKCTEIVDQFVCK
modifications: left off: small tags and cut ends
B2: Wnt-1: Partially purified conditioned media from stable fibroblast cell line engineered to secrete Wnt-1 ligand (protein)
chain: ANSSGRWWGIVNIASSTNLLTDSKSLQLVLEPSLQLLSRKQRRLIRQNPGILHSVSGGLQSAVRECKWQFRNRRWNCPTAPGPHLFGKIVNRGCRETAFIFAITSAGVTHSVARSCSEGSIESCTCDYRRRGPGGPDWHWGGCSDNIDFGRLFGREFVDSGEKGRDLRFLMNLHNNEAGRTTVFSEMRQECKCHGMSGSCTVRTCWMRLPTLRAVGDVLRDRFDGASRVLYGNRGSNRASRAELLRLEPEDPAHKPPSPHDLVYFEKSPNFCTYSGRLGTAGTAGRACNSSSPALDGCELLCCGRGHRTRTQRVTERCNCTFHWCCHVSCRNCTHTRVLHECL
modifications: left off: small tags and cut ends

Key:
Assay type in all cases: cell-based, rat
VM cultures = assay: TuJ1+ neurons and proliferating clusters, proportion dopaminergic, in VM cultures; conditions: for total number of TuJ1+ neurons: FIG. 3f
Procedure: (§1) Ventral mesencephala and cerebral cortices from embryos E13.5-14.5 obtained from timed-mated Sprague-Dawley rats were dissected, mechanically dissociated and plated at a final density of 1×10^5 cells/cm2 on poly-D-lysine coated 12- or 24-well plates in a defined, serum-free medium (N2, consisting of a 1:1 mixture of F12 and DMEM containing insulin (10 ng/ml), transferrin (100 μg/ml), putrescine (100 μM), progesterone (20 nM), selenium (30 nM), glucose (6 mg/ml), and bovine serum albumin (1 mg/ml)). Purified Type 1 astrocytes were obtained from mixed glial cultures derived from the VM or CTX of P1 rats according to a standard protocol (Wagner et al., 1999). After shaking and replating into 12-well plates, astrocytes were grown to confluency in 15% fetal bovine serum-containing media and changed to N2 medium, at which time freshly dissected VM or CTX cells were plated on top of the astrocytes at a density of 1×10^5 cells/cm2. All factors were added once, at the initiation of culture, with the exception of 5-bromodeoxyuridine (BrdU), which was added 4-6 hours prior to fixation. Cultures were maintained in a humidified 5% CO2, 95% air incubator at 37° C. and fixed after given time periods with 4% paraformaldehyde for 45 minutes prior to immunocytochemical analysis.
(§2) Fixed cultures were incubated with one of the following antibodies, diluted appropriately in phosphate-buffered saline (PBS) containing 1% bovine serum albumin and 0.3% Triton-X 100: mouse anti-BrdU, 1:50 (DAKO, Denmark), mouse anti-β-tubulin, Type III (TuJ1), 1:250 (Sigma), mouse anti-TH, 1:1000 (Incstar, USA), rabbit anti-TH, 1:250 (PelFreeze); rabbit anti-Nurr1, 1:2000 (gift from Dr. T. Perlmann, Sweden), rabbit anti-Nurr1, 1:1000 (Santa Cruz, USA) or mouse anti-Nurr1, 1:250 (BD Transduction Laboratories, USA), rabbit anti Adh2 1:4000 (gift from Dr. R. Lindahl, South Carolina). Incubations were either carried out at 4° C. overnight, or at room temperature for 1 hour. Both processes yielded similar results. After washing, cultures were incubated for 1-3 hr with appropriate secondary antibodies (biotinylated 1:500; CY2-, FITC-, or rhodamine-coupled horse-anti-mouse IgG 1:100; or goat-anti-rabbit IgG 1:100; all from Vector, USA), in the same dilution buffer. Brightfield immunostaining was visualized with the Vector Laboratory ABC immunoperoxidase kit, using either NovaRed (red), or AEC (red), SG or 3-3′ dimaminobenzidine tetrahydrochloride (DAB 0.5 mg/ml)/nickel chloride (1.6 mg/ml) (gray/black), or VIP (violet) substrates. Double-staining was performed by sequential single staining as described. The order of staining was only critical for BrdU-double labeling, in which case the BrdU procedure was always performed second. […] Photos were acquired with a Zeiss Axioplan 100M microscope and collected with a Hamamatsu camera C4742-95 (with the QED imaging software).
Only clearly stained cells were counted as positive cells. Spheres were considered positive if they contained one or more positive cell. Quantitative immunocytochemical data on individual cells represent means and standard errors of counts obtained by a blinded observer from 10-20 non-overlapping fields (cells) or in the entire well (clusters), in each of 3-4 wells per condition from 3-4 independent experiments, unless stated otherwise. For each variable, initial statistical comparisons were performed by a global ANOVA, with multiple factors of dose, time point, treatment and/or region; if significant interactions between treatment and any other variable existed, data were further divided into separate times, doses or regions. Fisher's protected least significant difference was used post hoc to identify specific points at which the treatments differed from controls (or each other) only when significant interactions between factor treatment and other variables occurred. Significance for all tests was assumed at the level of p<0.05. […]

[1] = system: ventral mesencephalic Nurr1+ neuronal precursors; assay: Conversion of VM Nurr1+ precursors into Nurr1+/TH+ dopaminergic neurons (double immunostaining); conditions: VM cultures; control approximately 50%
Procedure: as §1
B1A fibroblast lines were cotransfected with the mFz8CRD-IgG/pRK5 and the pIRES puro 2 (Clontech, BD Bioscience, Erembodegem, Belgium) plasmids, using Lipofectamine Plus reagent (Invitrogen, Lidingo, Sweden) according to the instruction of the manufacturer. Upon selection for puromycin resistance (1 μg/ml Sigma, Stockholm, Sweden), clones were isolated and expanded. A clone overexpressing Fz8CRD 700× (real time RT-PCR analysis) was identified. Harvesting and partial purification of Fz8CRD conditioned media were performed as described previously. In all the blocking experiments performed, the Fz8CRD and B1A control partial purified conditioned medias were used at a final concentration of 125-250 μg/ml. […]
Only clearly stained cells were counted as positive cells. […]

[2] = system: E13.5 primary cultures from the cerebral cortex; assay: Induction of TH in Nurr1+ E13.5 cerebral cortex primary cultures; conditions: for proportion of Nurr1 positive cortical cells that expressed TH: Wnt ligands or co-culture with P1 astrocytes
Procedure: as §1, §2
Only clearly stained cells were counted as positive cells. Spheres were considered positive if they contained one or more positive cell. Quantitative immunocytochemical data on individual cells represent means and standard errors of counts obtained by a blinded observer from 10-20 non-overlapping fields (cells) or in the entire well (clusters), in each of 3-4 wells per condition from 3-4 independent experiments, unless stated otherwise. […]

Molecule | enrichment for dopaminergic clusters (VM cultures; FIG. 3e) | total number of TuJ1+ neurons (VM cultures) | enrichment for dopaminergic neurons (VM cultures; FIG. 3g) | increase in number of proliferating clusters containing TuJ1+ cells (VM cultures; compared to control (FIG. 3d)) | proportion of Nurr1 positive cells that expressed TH (Nurr1+/TH+) [1] | increase in number of double Nurr1/TH+ cells compared to Wnt-1 ([2]; 3 days) | increase in number of double Nurr1/TH+ cells compared to control ([2]; 3 days) | proportion of Nurr1 positive cortical cells that expressed TH [2] | proportion of VM clusters containing dopaminergic neurons (VM cultures; FIG. 3e) | proportion of TH+ (dopaminergic) neurons (VM cultures; FIG. 3g)
B1 | more than two | did not increase | more than two | did not increase | 90% | > 4 fold | > 40 fold | significant increase | – | –
B2 | – | increased | – | – | 70% | – | – | significant increase | about 30% | did not increase
